B1: scFv; the commonest letter at each place (parent)
chain 1: EVKLDETGGGLVQPGRPMKLSCVASGFTFSDYWMNWVRQSPEKGLEWVAQIRNKPYNYETYYSDSVKGRFTISRDDSKSSVYLQMNNLRVEDMGIYYCTGSYYGMDYWGQGTSVTVS
chain 2: DVVMTQTPLSLPVSLGDQASISCRSSQSLVHSNGNTYLRWYLQKPGQSPKVLIYKVSNRFSGVPDRFSGSGSGTDFTLKISRVEAEDLGVYFCSQSTHVPWTFGGGTKLEIK

Legend:
[1] = variants of: B1; assay: Kd (Tite-Seq); conditions: with fluorescein; format: scFv 4-4-20, heavy + light
[2] = variants of: B1; assay: yeast surface expression (ratio to wild type); higher = more expressed; conditions: format: scFv 4-4-20, heavy + light

chain 1 EVKLDETGGGLVQPGRPMKLSCVASGFTYSPYWMNWVRQSPEKGLEWVAQIRNKPYNYETYYSDSVKGRFTISRDDSKSSVYLQMNNLRVEDMGIYYCTGSYYGMDYWGQGTSVTVS chain 2 DVVMTQTPLSLPVSLGDQASISCRSSQSLVHSNGNTYLRWYLQKPGQSPKVLIYKVSNRFSGVPDRFSGSGSGTDFTLKISRVEAEDLGVYFCSQSTHVPWTFGGGTKLEIK [chain 1 F29Y D31P]
Kd [1]: ≥ 10 µM
yeast surface expression [2]: 0.888

chain 1 EVKLDETGGGLVQPGRPMKLSCVASGFTFSDYWMNWVRQSPEKGLEWVAQIRNKPYNYETYYSDSVKGRFTISRDDSKSSVYLQMNNLRVEDMGIYYCTRIYYGMDYWGQGTSVTVS chain 2 DVVMTQTPLSLPVSLGDQASISCRSSQSLVHSNGNTYLRWYLQKPGQSPKVLIYKVSNRFSGVPDRFSGSGSGTDFTLKISRVEAEDLGVYFCSQSTHVPWTFGGGTKLEIK [chain 1 G100R S101I]
Kd [1]: ≥ 10 µM
yeast surface expression [2]: 0.352

chain 1 EVKLDETGGGLVQPGRPMKLSCVASGFTFSDYWMNWVRQSPEKGLEWVAQIRNKPYNYETYYSDSVKGRFTISRDDSKSSVYLQMNNLRVEDMGIYYCTGSYYGQDYEGQGTSVTVS chain 2 DVVMTQTPLSLPVSLGDQASISCRSSQSLVHSNGNTYLRWYLQKPGQSPKVLIYKVSNRFSGVPDRFSGSGSGTDFTLKISRVEAEDLGVYFCSQSTHVPWTFGGGTKLEIK [chain 1 M105Q W108E]
Kd [1]: ≥ 10 µM
yeast surface expression [2]: 0.438

chain 1 EVKLDETGGGLVQPGRPMKLSCVASGFTFSDYWMNWVRQSPEKGLEWVAQIRNKPYNYETYYSDSVKGRFTISRDDSKSSVYLQMNNLRVEDMGIYYCTGSDYGMDYWGQGTSVTVS chain 2 DVVMTQTPLSLPVSLGDQASISCRSSQSLVHSNGNTYLRWYLQKPGQSPKVLIYKVSNRFSGVPDRFSGSGSGTDFTLKISRVEAEDLGVYFCSQSTHVPWTFGGGTKLEIK [chain 1 Y102D]
Kd [1]: ≥ 10 µM
yeast surface expression [2]: 1.16

chain 1 EVKLDETGGGLVQPGRPMKLSCVASGFTFWDCWMNWVRQSPEKGLEWVAQIRNKPYNYETYYSDSVKGRFTISRDDSKSSVYLQMNNLRVEDMGIYYCTGSYYGMDYWGQGTSVTVS chain 2 DVVMTQTPLSLPVSLGDQASISCRSSQSLVHSNGNTYLRWYLQKPGQSPKVLIYKVSNRFSGVPDRFSGSGSGTDFTLKISRVEAEDLGVYFCSQSTHVPWTFGGGTKLEIK [chain 1 S30W Y32C]
Kd [1]: 5.66 µM
yeast surface expression [2]: 0.838

chain 1 EVKLDETGGGLVQPGRPMKLSCVASGFTFSDYEMNWVRQSPEKGLEWVAQIRNKPYNYETYYSDSVKGRFTISRDDSKSSVYLQMNNLRVEDMGIYYCTGSYYGMDYWGQGTSVTVS chain 2 DVVMTQTPLSLPVSLGDQASISCRSSQSLVHSNGNTYLRWYLQKPGQSPKVLIYKVSNRFSGVPDRFSGSGSGTDFTLKISRVEAEDLGVYFCSQSTHVPWTFGGGTKLEIK [chain 1 W33E]
Kd [1]: ≥ 10 µM
yeast surface expression [2]: 1.05

chain 1 EVKLDETGGGLVQPGRPMKLSCVASGFTCSDYWMNVVRQSPEKGLEWVAQIRNKPYNYETYYSDSVKGRFTISRDDSKSSVYLQMNNLRVEDMGIYYCTGSYYGMDYWGQGTSVTVS chain 2 DVVMTQTPLSLPVSLGDQASISCRSSQSLVHSNGNTYLRWYLQKPGQSPKVLIYKVSNRFSGVPDRFSGSGSGTDFTLKISRVEAEDLGVYFCSQSTHVPWTFGGGTKLEIK [chain 1 F29C W36V]
Kd [1]: ≥ 10 µM
yeast surface expression [2]: 0.635

chain 1 EVKLDETGGGLVQPGRPMKLSCVASGFTFSDYWMNWVRQSPEKGLEWVAQIRNKPYNYETYYSDSVKGRFTISRDDSKSSVYLQMNNLRVEDMGIYYCTGSCYGMLYWGQGTSVTVS chain 2 DVVMTQTPLSLPVSLGDQASISCRSSQSLVHSNGNTYLRWYLQKPGQSPKVLIYKVSNRFSGVPDRFSGSGSGTDFTLKISRVEAEDLGVYFCSQSTHVPWTFGGGTKLEIK [chain 1 Y102C D106L]
Kd [1]: ≥ 10 µM
yeast surface expression [2]: 0.306

chain 1 EVKLDETGGGLVQPGRPMKLSCVASGFTFSDYWMNWVRQSPEKGLEWVAQIRNKPYNYETYYSDSVKGRFTISRDDSKSSVYLQMNNLRVEDMGIYYCTGSYYRMPAWGQGTSVTVS chain 2 DVVMTQTPLSLPVSLGDQASISCRSSQSLVHSNGNTYLRWYLQKPGQSPKVLIYKVSNRFSGVPDRFSGSGSGTDFTLKISRVEAEDLGVYFCSQSTHVPWTFGGGTKLEIK [chain 1 G104R D106P Y107A]
Kd [1]: ≥ 10 µM
yeast surface expression [2]: 0.359

chain 1 EVKLDETGGGLVQPGRPMKLSCVASGFTCSDYWKNIVRQSPEKGLEWVAQIRNKPYNYETYYSDSVKGRFTISRDDSKSSVYLQMNNLRVEDMGIYYCTGSYYGMDYWGQGTSVTVS chain 2 DVVMTQTPLSLPVSLGDQASISCRSSQSLVHSNGNTYLRWYLQKPGQSPKVLIYKVSNRFSGVPDRFSGSGSGTDFTLKISRVEAEDLGVYFCSQSTHVPWTFGGGTKLEIK [chain 1 F29C M34K W36I]
Kd [1]: ≥ 10 µM
yeast surface expression [2]: 0.425

chain 1 EVKLDETGGGLVQPGRPMKLSCVASGFTFSDYWMNWVRQSPEKGLEWVAQIRNKPYNYETYYSDSVKGRFTISRDDSKSSVYLQMNNLRVEDMGIYYCTGAPYGMDYWGQGTSVTVS chain 2 DVVMTQTPLSLPVSLGDQASISCRSSQSLVHSNGNTYLRWYLQKPGQSPKVLIYKVSNRFSGVPDRFSGSGSGTDFTLKISRVEAEDLGVYFCSQSTHVPWTFGGGTKLEIK [chain 1 S101A Y102P]
Kd [1]: ≥ 10 µM
yeast surface expression [2]: 0.793

chain 1 EVKLDETGGGLVQPGRPMKLSCVASGFTFSDYWMNWVRQSPEKGLEWVAQIRNKPYNYETYYSDSVKGRFTISRDDSKSSVYLQMNNLRVEDMGIYYCTGSSYGKDYWGQGTSVTVS chain 2 DVVMTQTPLSLPVSLGDQASISCRSSQSLVHSNGNTYLRWYLQKPGQSPKVLIYKVSNRFSGVPDRFSGSGSGTDFTLKISRVEAEDLGVYFCSQSTHVPWTFGGGTKLEIK [chain 1 Y102S M105K]
Kd [1]: 0.00251 µM
yeast surface expression [2]: 1.02

From the FLAb antibody collection (doi:10.7554/elife.23156)
